In patent publication US20080248043A1 (Amgen, published 2008):

B1: 6B5 (antibody, V domains shown)
VH: not shown
VL: DIQMTQSPSSLSASVGDRVTITCRASQGIRSDLGWYQQRPGKTPKRLIYAASSLQSGVPSRFSGSGSGTEFTLTISSLQPEDFATYYCQQYNSYPLTFGGGTKVEIK
B2: 5A7 (antibody, V domains shown)
VH: QVQLVQSGAEVKKPGASVKVSCKASGYTFTSYGISWVRQAPGQGLEWMGWISAYNGNTNYAQKLQGRVTMTTDTSTSTAYMELRSLRSDDTAVYYCAVGRYLDYWGQGTLVTVSS
VL: DIQMTQSPSSLSASVGDRVTITCRASQDIRNDLGWYQQKPGKAPKRLIYAASSLQSGVPSRFSGSGSGTEFTLTISSLQPEDFATYYCLQYNSYPLTFGGGTKVEIK
B3: 3H12 (antibody, V domains shown)
VH: QVQLQESGPGLVKPSETLSLTCTVSDGSISSFYWSWIRQPPGKGLEWIGYIYYSGSTNYNPSLKSRVTISVDTSKNQFSLKLSSVTAADTAVYYCARDYDILTGYSNYYGMDVWGQGTTVTVSS
VL: DIQMTQSPSSLSASVGDRVTITCRASQGIRNDLGWYQQKPGKAPKRLIYAASSLQSGVPSRFSGSGSGTEFTLTISSLQPEDFATYYCLQHNSYPFTFGPGTKLDIK
B4: 1B5 (antibody, V domains shown)
VH: QVQLVESGGGVVQPGRSLRLSCAASGFTFSSYGMHWVRQAPGKGLEWVAVIWYDGSNKYYADSVKGRFTISRDNSKNTLYLQMNSLRAEDTAVYYCARGDFYWFDPWGQGTLVTVSS
VL: DIQMTQSPSSLSASVGDRVTITCRASQGIRSDLGWYQQRPGKTPKRLIYAASSLQSGVPSRFSGSGSGTEFTLTISSLQPEDFATYYCQQYNSYPLTFGGGTKVEIK
B5: 3A7 (antibody, V domains shown)
VH: QVQLVQSGAEVKKPGASVKVSCKASGYTFTSYGISWVRQAPGQGLEWMGWISAYNGNTNYAQKLQGRVTMTTDTSTSTAYMELRSLRSDDTAVYYCAVGRYLDYWGQGTLVTVSS
VL: DIQMTQSPSSLSASVGDRVTITCRASQDIRNDLGWYQQKPGKAPKRLIYAASSLQSGVPSRFSGSGSGTEFTLTISSLQPEDFATYYCLQYNSYPLTFGGGTKVEIK
B6: 5D3 (antibody, V domains shown)
VH: QVQLVQSGAEVKKPGASVKVSCKASGYTFTSYGISWVRQAPGQGLEWMGWISAYNGNTNYAQKLQGRVTMTTDTSTSTAYMELRSLRSDDTAVYYCAVGRYLDYWGQGTLVTVSS
VL: DIQMTQSPSSLSASVGDRVTITCRASQDIRNDLGWYQQKPGKAPKRLIYAASSLQSGVPSRFSGSGSGTEFTLTISSLQPEDFATYYCLQYNSYPLTFGGGTKVEIK
B7: 5E4 (antibody, V domains shown)
VH: QVHLVQSGAEVKKPGASVKVSCKASGYTFTGYYVHWVRQAPGQGLEWMGWINPNSGGTNYAQKFQGRVTMTRDTSISTAYMELSRLRSDDTAVYFCAGGRYLDYWGQGTLVTVSS
VL: DIQMTQSPSSLSASVGDRVTITCRASQGIRNDLGWYQQKPGKAPKRLIYAASSLQSGVPSRFSGSGSGTEFTLTISSLQPEDFATYYCLQYNSYPITFGQGTRLEIK
B8: 6B8 (antibody, V domains shown)
VH: QVQLVQSGAEVKKPGASVKVSCKASGYTFTSYGISWVRQAPGQGLEWMGWISAYNGNTNYAQKLQGRVTMTTDTSTSTAYMELRSLRSDDTAVYYCAVGRYLDYWGQGTLVTVSS
VL: DIQMTQSPSSLSASVGDRVTITCRASQDIRNDLGWYQQKPGKAPKRLIYAASSLQSGVPSRFSGSGSGTEFTLTISSLQPEDFATYYCLQYNSYPLTFGGGTKVEIK
B9: 5D6 (antibody, V domains shown)
VH: QVQLVQSGAEVKKPGASVKVSCKASGYTFTSYGISWVRQAPGQGLEWMGWISAYNGNTNYAQKLQGRVTMTTDTSTNTAYMELRSLRSDDTAVYYCAVGRYLDYWGQGTLVTVSS
VL: DIQMTQSPSSLSASVGDRVTITCRASQDIRNDLGWYQQKPGKAPKRLIYAASSLQSGVPSRFSGSGSGTEFTLTISSLQPEDFATYYCLQYNSYPLTFGGGTKVEIK
B10: 4A10 (antibody, V domains shown)
VH: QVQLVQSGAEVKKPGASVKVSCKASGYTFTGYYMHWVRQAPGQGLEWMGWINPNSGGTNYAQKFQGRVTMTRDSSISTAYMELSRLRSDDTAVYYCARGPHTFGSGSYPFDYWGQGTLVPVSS
VL: DIQLTQSPSSLSASVGDRVTITCRASQGIRSDLGWYQQRPGKTPKRLIYAASSLQSGVPSRFSGSGSGTEFTLTISSLQPEDFATYYCQQYNSYPLTFGGGTKVEIK
B11: 6C1 (antibody, V domains shown)
VH: QVQLVQSGAEVKKPGASVKVSCKASGFPFTDYYMHWVRQAPGQGLEWMGWINSNSGGTNYAQKFQGRVTMTRDTSISTAYMELSRLRSDDTAVYYCARGPHSFGSGSYPFDYWGQGTLVTVSS
VL: DIQMTQSPSSLSASVGDRVTITCRASQGIRSDLGWYQQRPGKTPKRLIYAASSLQSGVPSRFSGSGSGTEFTLTISSLQPEDFATYYCQQYNSYPLTFGGGTKVEIK
B12: 4G2 (antibody, V domains shown)
VH: QVQLVQSGAEVKKPGASVKVSCKASGFPFTDYYMHWVRQAPGQGLEWMGWINSNSGGTNYAQKFQGRVTMTRDTSISTAYMELSRLRSDDTAVYYCARGPHSFGSGSYPFDYWGQGTLVTVSS
VL: DIQMTQSPSSLSASVGDRVTITCRASQGIRSDLGWYQQRPGKTPKRLIYAASSLQSGVPSRFSGSGSGTEFTLTISSLQPEDFATYYCQQYNSYPLTFGGGTKVEIK
B13: 4E2 (antibody, V domains shown)
VH: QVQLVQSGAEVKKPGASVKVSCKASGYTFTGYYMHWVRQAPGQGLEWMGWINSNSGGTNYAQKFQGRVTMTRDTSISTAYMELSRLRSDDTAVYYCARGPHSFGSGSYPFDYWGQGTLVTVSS
VL: DIQMTQSPSSLSASVGDRVTITCRASQGIRSDLGWYQQRPGKTPKRLIYAASSLQSGVPSRFSGSGSGTEFTLTISSLQPEDFATYYCQQYNSYPLTFGGGTKVEIK
B14: 6C2 (antibody, V domains shown)
VH: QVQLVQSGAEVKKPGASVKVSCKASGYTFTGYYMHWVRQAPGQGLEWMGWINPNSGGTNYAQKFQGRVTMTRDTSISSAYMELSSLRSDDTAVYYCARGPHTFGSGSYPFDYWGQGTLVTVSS
VL: DIQMTQSPSSLSASVGDRVTITCRASQGIRSDLGWYQQRPGNTPKRLIYAASSLQSGVPSRFSGSGSGTEFTLTISSLQPEDFATYYCQQYNSYPLTFGGGTKVEIK
B15: 5A5 (antibody, V domains shown)
VH: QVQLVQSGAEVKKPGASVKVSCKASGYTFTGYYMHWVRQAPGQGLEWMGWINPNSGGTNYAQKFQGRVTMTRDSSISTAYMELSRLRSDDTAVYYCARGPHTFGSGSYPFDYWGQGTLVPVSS
VL: DIQLTQSPSSLSASVGDRVTITCRASQGIRSDLGWYQQRPGKTPKRLIYAASSLQSGVPSRFSGSGSGTEFTLTISSLQPEDFATYYCQQYNSYPLTFGGGTKVEIK
B16: 3F3 (antibody, V domains shown)
VH: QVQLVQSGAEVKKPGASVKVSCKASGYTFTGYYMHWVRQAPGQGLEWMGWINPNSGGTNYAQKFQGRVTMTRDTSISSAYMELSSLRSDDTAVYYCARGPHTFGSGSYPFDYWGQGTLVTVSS
VL: DIQMTQSPSSLSASVGDRVTITCRASQGIRSDLGWYQQRPGNTPKRLIYAASSLQSGVPSRFSGSGSGTEFTLTISSLQPEDFATYYCQQYNSYPLTFGGGTKVEIK
B17: 3C7 (antibody, V domains shown)
VH: QVQLVESGGGVVQPGTSLRLSCAASGFTFSSYGIHWVRQAPGKGLEWVAVIWYDGSNKFYADSVKGRFTISRDNSKNTLYLQMNSLRAEDTAVYYCARDPLGYCSSTSCSYFDYWGQGTLVTVSS
VL: DIQMTQSPSSVSASVGDRVTITCRASQGISNWLAWYQQKPGKAPKLLIYAASSLQSGVPSRFSGSGSGTDFTLTIRSLQPEDFATYYCQQANNFPLTFGGGTKVEIK
B18: 6B1 (antibody, V domains shown)
VH: QVQLVESGGGVVQPGTSLRLSCAASGFTFSSYGIHWVRQAPGKGLEWVAVIWYDGSNKFHADSVKGRFTISRDNSKNTLYLQMNSLRAEDTAVYYCARDPLGYCSSTSCSYFDYWGQGTLVTVSS
VL: DIQMTQSPSSVSASVGDRVTITCRASQGISNWLAWYQQKPGKAPKLLIYAASSLQSGVPSRFSGSGSGTDFTLTISSLQPEDFATYYCQQANNFPLTFGGGTKVEIK

Molecular target: S protein of SARS-CoV Urbani strain (on virus) (SARS-CoV Urbani strain, UniProt P59594 14-1255)
Assay: cell-based or functional assay

| Binder | Neutralizing titer 200TCID50 [µg/mL] |
| --- | --- |
| B1 | 3.12 |
| B2 | 0.781 |
| B3 | 3.12 |
| B4 | 0.195 |
| B5 | 0.195 |
| B6 | 0.195 |
| B7 | 12.5 |
| B8 | 0.781 |
| B9 | 0.195 |
| B10 | 3.12 |
| B11 | 0.781 |
| B12 | 0.781 |
| B13 | 0.781 |
| B14 | 0.781 |
| B15 | 0.195 |
| B16 | 0.781 |
| B17 | 12.5 |
| B18 | 3.12 |
